Experimental data from the supplement of paper PMC9170038.

Test system: MS2 coat protein
Test: apparent KD of MS2 coat protein; designed switch direction (-1 OFF switch, 1 ON switch): 1; higher = weaker reporter binding
Procedure, shortened: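 For each design, the apparent KD is the median over clusters of curves fitted to normalised cluster fluorescence. Clusters held RNA switches with common flanks, transcribed on Illumina chips by stalled E. coli RNA polymerase. These were titrated with SNAP-549-labelled MS2 coat protein, doubling from 0.7 or 1.5 nM to 3 µM, without input, with 200 uM small-molecule ligand, or with an oligonucleotide input.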

[1] = Eterna round: R95, input ligand: FMN 200 uM
[2] = Eterna round: R95, input ligand: microRNA oligo, concentration not stated
[3] = Eterna round: R95, input ligand: none
[4] = input ligand: microRNA oligo, concentration not stated

| Sequence | apparent KD of MS2 coat protein [1] | apparent KD of MS2 coat protein [2] | apparent KD of MS2 coat protein [3] | apparent KD of MS2 coat protein (input ligand: FMN 200 uM) | apparent KD of MS2 coat protein [4] | apparent KD of MS2 coat protein (input ligand: none) |
| --- | --- | --- | --- | --- | --- | --- |
| GGAGCCGGCACUGAGGAUAUUCAUAUUAAAACAUGAGGAUCACCCAUGUAGGCCAGAAGGCCUUGGGAGAAGGCAGGUCGGCUCG [salish99_ss2_r3_075] (puzzle: Same State 2) | 27.1 nM | 408 nM | 901 nM |  |  |  |
| ACAUGAGGAUCACCCAUGUAGGCUCAGGAAACUGUGCCACAUGAGGAUAUGGAUCCUAAUUGGAUCCAGAAGGCAUGAUUUAUU [Fiskers NG3ss - 21] (Eterna round: R96, puzzle: Same State NG 3) |  |  |  | 243 nM | 1240 nM | 1290 nM |
| GGAGCCGGCCUAGGAUAUUUCAUAGAAAAACAUGAGGAUCACCCAUGUAGGCCAGAAGGCCUUGGGAAGAAGGAGGUCGGCUCC [Loop Effect - G25] (Eterna round: R96, puzzle: Same State NG 2) |  |  |  | 9.45 nM | 19.5 nM | 31.2 nM |
| GAGAGAGGGCGAGGAUAUUCGGUGAUAAUGAUGGGAGAAGGCGCAGACAUGAGGAUCACCCAUGUGGGAAUAAUCCAGAGAGAG [Parity 13 - Jieux - Same State NG 1] (Eterna round: R96, puzzle: Same State NG 1) |  |  |  | 151 nM | 111 nM | 185 nM |
| GGAUCAUGACGAGGAUAUGGUACAUGAGGAUCACCCAUGUAUGUACCACGACGGAAACGUCGAAUCCAGAAGGCGUCAUGAUCG [Mat - Same State NG 2 - JL mod - D39] (Eterna round: R96, puzzle: Same State NG 2) |  |  |  | 25.3 nM | 70.1 nM | 120 nM |
| UAAAUACAUGAGGAUCACCCAUGUCAAAAGACAUGAGGAUAUGUACAGUCUUCGGUCUGUACAGAAGGCAUGAAUA [salish99_ss1_r3_097] (Eterna round: R96, puzzle: Same State 1) |  |  |  | 52.1 nM | 370 nM | 461 nM |
| UUACUCAUGUAAGGAUAUGCAGCCGAAACGGCUGCAGAAGGUACUAUAAUACAUGAGGAUCACCCAUGUCUUUUUAAUUUAGAC [Mat - Same State NG 1 - JL mod - D82] (Eterna round: R96, puzzle: Same State NG 1) |  |  |  |  | 37 nM |  |
| AGGCCAUCGGGAGGAUAUGGCACCUUAUUGGUGCCAGAAGGUCCAACAUGAGGAUCACCCAUGUGGGAGAGUUCUAAUGAACAU [Fiskers NG1(SS) - 3] (Eterna round: R96, puzzle: Same State NG 1) |  |  |  | 28.4 nM | 25.3 nM | 32.2 nM |
| GCCAUCCAGUGAGGAUAUGGCACCGUUUCGGUGCCAGAAGGCAUGUCAAUUGACAUGAGGAUCACCCAUGUAUUAUGGAUGGCA [JL Fiskers NG1ss - 33 mod 1] (Eterna round: R96, puzzle: Same State NG 1) |  |  |  | 96.2 nM | 423 nM | 1110 nM |
| AAAACAUGAGGAUCACCCAUGUGUAAAAGAUACCGGAUGGUGCAGGAUAUAUCCCAUUAAAGUGGAUAGAAGGGUGGCAUCAAG [Eternabot solution 46] (Eterna round: R96, puzzle: Same State NG 3) |  |  |  | 20.8 nM | 32.5 nM | 32.1 nM |
| AAACAUGAGCGAGGAUAUGCAGAGGAUCACCCUGUAGAAGGCGCAUGUAAAACAACAUGAGGAUCACCCAUGUCAUGUACAUGA (Eterna round: R96, puzzle: Same State NG 1) |  |  |  | 19.4 nM | 15.3 nM | 20.2 nM |
| GAGCCAGUCCGAGGAUAUUCACAUGAGGAUCACCCAUGUAGGCUCAGAAAAGAAAAGGAGCCUUGGGAGAAGGCGGACUGGCUC [Xeonanisa<<8] (Eterna round: R96, puzzle: Same State NG 2) |  |  |  | 6.35 nM | 9.87 nM | 13.3 nM |
| GUCCAACAUGAGGAUCACCCAUGUCGGGCGUGCACAGGAUAUCGCGCCGGGAAAGACCAGCGAGAAGGGUGAUCGA [Leriqu] (puzzle: Same State 1) | 139 nM | 51.4 nM | 57.5 nM |  |  |  |
| AAAGAAAACGCAGGAUAUCCCGGAAAAGAUCCGGGAGAAGGGUGACCGGUACAUGAGGAUCACCCAUGUAGAGCAAAGGCUCAA [Ceonbeti] (Eterna round: R96, puzzle: Same State NG 1) |  |  |  | 232 nM | 133 nM | 128 nM |
| AGAGAACAUGAGGAUCACCCAUGUGGGAGAUGCAUAGGAUAUAGGAGAGAGAGCGAGGAACUAGAAGGAUGAUGGA [JR_SS1_Sub081] (puzzle: Same State 1) | 79.7 nM | 63.7 nM | 191 nM |  |  |  |
| AGUCCUGAAUAAAUUAAACAGAGACAUGUACAUGAGGAUCACCCAUGUCAUGUGCAAGUUUUUUGCUCGUCAUAUAA [Sensorship 17 - Jieux - Sensor for hsa-mir-208a] (puzzle: Sensor for hsa-mir-208a) | 13.7 nM | 10.7 nM | 14.9 nM |  |  |  |
| CUCAACAACACAGGAUAUCCAGGGAAAAGACCUGGAGAAGGGUGACCAACAUGAGGAUCACCCAUGUGACGGCUAGACCGUCUG [Isquce] (Eterna round: R96, puzzle: Same State NG 1) |  |  |  | 593 nM | 24 nM | 249 nM |
| CUCAAAACAAGUUGCAGUGUUCGUCUUUAACAUGAGGAUCACCCAUGUAAUAGCCUGGUGGAAGCGCUCGGGCCACC [Qurabila] (puzzle: Sensor for hsa-mir-208a) | 23.4 nM | 15.6 nM | 25.1 nM |  |  |  |
| UAUGAAUUGCAAGGAUAUUGAUAACAUGAGGAUCACCCAUGUAAUUGUUCGAGUUAGAUUAGUUACAAGAAGGUGCUAUUGUUU [JR_SSNG2_Sub038] (Eterna round: R96, puzzle: Same State NG 2) |  |  |  | 350 nM | 459 nM | 337 nM |
| AUUCGAUAGAUAGGAUAUCACCAUACAUGAGGAUCACCCAUGUUGACCACGCUGGUUAUUCAUACUGAGAAGGAUCUUGAUGAC [JR_SSNG2_Sub005] (Eterna round: R96, puzzle: Same State NG 2) |  |  |  | 27.8 nM | 31.1 nM | 52.2 nM |
| UGGCUGGUGCUAGGAUAUGCAUGAGGCCUCCUCGUAGAAGGAGCACGACAUGAGGAUCACCCAUGUGGCCGUCCGUAGACGGCU [salish99_SSNG1_r04_013] (Eterna round: R96, puzzle: Same State NG 1) |  |  |  | 62.5 nM | 35.9 nM | 61.2 nM |
| UGUUUGUUGUGAGGAUAUACAUACACCUUACAUGAGGAUCACCCAUGUUUUAAUUUUGAUAGUUAGUAGAAGGCACAUGAUUAU [JR_SSNG2_Sub044] (Eterna round: R96, puzzle: Same State NG 2) |  |  |  | 21.3 nM | 28.1 nM | 46.5 nM |
| GUAGCAUGCAGGCAGGAUAUUCAUAUUAAAACAUGAGGAUCACCCAUGUAGGCCGAAAGGCCUUGGGAGAAGGGCCACAUGCUAC [Xeonanis - 18] (Eterna round: R96, puzzle: Same State 2) |  |  |  | 36.8 nM | 429 nM | 704 nM |
| UGGUAACAUGAGGAUCACCCAUGUCAAAUGAAUCGAGGAUAUGGGAAUUAAUAAUAUAAACUAGAAGGCGAAUUUG [Altered State 1-6 - Jieux - Same State 1] (puzzle: Same State 1) | 85.6 nM | 123 nM | 52.7 nM |  |  |  |
| GGAGCCAGCACCGAGGAUAUUCAUAUUAAAACAUGAGGAUCACCCAUGUAGGCCAGAAGGCCUUGGGAGAAGGCGGACUGGCUCG [Xeonanis - 11] (puzzle: Same State 2) | 28.5 nM | 221 nM | 976 nM |  |  |  |
| ACGUCGAUAUCACAGGAUAUACUCACAUCUACAUGAGGAUCACCCAUGUAGCGGUAUUCCGGUGCGUAGAAGGGUGAUGGACGAC [Same State 2 - Mod of Artece v.4] (puzzle: Same State 2) | 14.4 nM | 12.4 nM | 12.2 nM |  |  |  |
| UGCUAGUGGGUAGGAUAUUUAGGAUAUGGGAAAGACUAAGUCUGUAGGUCACCUAACCCAGAAGGAGAGAAGGACCAUUCAGCU [pwkr ssNG2 2FMN + F9.27] (Eterna round: R96, puzzle: Same State NG 2) |  |  |  | 30.3 nM | 4.33 nM | 28.5 nM |
| GACCGCGAGGAAGGAUAUGGAGCCUUAUUGGCUCCAGAAGGUCCAUAAAGGACAUGAGGAUCACCCAUGUGGGUUGGAGCGGUC [Fiskers NG1ss - 0] (Eterna round: R96, puzzle: Same State NG 1) |  |  |  | 32.8 nM | 96.2 nM | 176 nM |
| AGUCCAGCCUGAGCUGGACAAAAGCAUGUACAUGAGGAUCACCCAUGUCAUGUACAAGCUUUUUGCAAAUCUUAAUA [Mat - hsa-mir-208a - Mod of JL - D34] (puzzle: Sensor for hsa-mir-208a) | 603 nM | 14.6 nM | 807 nM |  |  |  |
| UGGCUCAGACGAGGAUAUAUGUGGUCACAUGAGGAUCACCCAUGUCUCGAGCUUCGGCUCGAGGCAUAGAAGGUGUCUGAGCCA [SSNG2/5-C2] (Eterna round: R96, puzzle: Same State NG 2) |  |  |  | 227 nM | 16 nM | 33.9 nM |
